Biological target: T1, Soluble Aβ 1-40 (UniProt P05067 672-711)
T1 construct: domain: Aβ 1-40
Assay: SPR (BIAcore), alternate method: antibody captured on protein A or A/G, Aβ 1-40 in flow, 5 h dissociation, 1:1 model with mass transfer; alternate method: antibody captured on protein A or A/G, 5 h dissociation
Method: Protein A or protein A/G is immobilized via amine coupling to flow cells 1 and 2 of a B1 or CM5 sensor chip (BIAcore). The test antibody is then captured in flow cell 2 at desired levels (usually a 10-60 second injection of antibody) and 5 minutes is allowed for the antibody to stabilize. […] Each concentration is injected over the surface for 5 minutes at a flow rate of 50 μL/min. […] Aβ 1-40 and antibody are then eluted from both flow cells with a 40 second injection of glycine (pH 1.5). The signal is allowed to stabilize for 2 minutes before the next cycle. The data from flow cell 1 is subtracted from flow cell 2 to account for any bulk shifts due to buffer differences or non-specific binding to the sensor chip or protein A. The various concentrations are injected randomly and each concentration is run in duplicate. Two 0 nM runs are used to control for any dissociation of antibody from the protein A or A/G capture surface. The data is analyzed using the Biaevalution software. A 1:1 model with mass transfer and a local Rmax is used as the best fit for the data.

B1: humanized 266 antibody (antibody, human IgG1, kappa, V domains shown)
VH: EVQLVESGGGLVQPGGSLRLSCAASGFTFSRYSMSWVRQAPGKGLELVAQINSVGNSTYYPDTVKGRFTISRDNAKNTLYLQMNSLRAEDTAVYYCASGDYWGQGTLVTVSS
VL: DVVMTQSPLSLPVTLGQPASISCRSSQSLIYSDGNAYLHWFLQKPGQSPRLLIYKVSNRFSGVPDRFSGSGSGTDFTLKISRVEAEDVGVYYCSQSTHVPWTFGQGTKVEIKR
- Kd: 400 pM
